# Molecular target: recombinant haptoglobin Hp1S, C1r-LP processed (rHp 1–1) (human) (UniProt P00738)
# Assay: non-reducing SDS-PAGE; Coomassie-stained gel of non-reduced protein samples; disulfide-linked dimers and multimers
substance,measurement,value
"recombinant haptoglobin Hp1S, C1r-LP processed (rHp 1–1) (from UniProt P00738-2 19-101) (natural protein)",stoichiometry N,2

# Reference: article PMC5856381
